Source: patent publication US20110263454A1, “Methods of Identifying Functional Characteristics of Promoters, Transcription Modifying Proteins and Transcription Modulating Agents” (Salk Institute for Biological Studies, priority 2008, published 2011)

B1: PPARd: Peroxisome proliferator activated receptor δ (NR1C2), cDNA driver (protein, UniProt Q03181 1-441, looked up)
Peroxisome …: MEQPQEEAPEVREEEEKEEVAEAEGAPELNGGPQHALPSSSYTDLSRSSSPPSLLDQLQMGCDGASCGSLNMECRVCGDKASGFHYGVHACEGCKGFFRRTIRMKLEYEKCERSCKIQKKNRNKCQYCRFQKCLALGMSHNAIRFGRMPEAEKRKLVAGLTANEGSQYNPQVADLKAFSKHIYNAYLKNFNMTKKKARSILTGKASHTAPFVIHDIETLWQAEKGLVWKQLVNGLPPYKEISVHVFYRCQCTTVETVRELTEFAKSIPSFSSLFLNDQVTLLKYGVHEAIFAMLASIVNKDGLLVANGSGFVTREFLRSLRKPFSDIIEPKFEFAVKFNALELDDSDLALFIAAIILCGDRPGLMNVPRVEAIQDTILRALEFHLQANHPDAQYLFPKLLQKMADLRQLVTEHAQMMQRIKKTETETSLHPLLQEIYKDMY
B2: PXR: Pregnane X Receptor (NR1I2), cDNA driver (protein, UniProt O75469 1-434, looked up)
Nuclear receptor subfamily 1 …: MEVRPKESWNHADFVHCEDTESVPGKPSVNADEEVGGPQICRVCGDKATGYHFNVMTCEGCKGFFRRAMKRNARLRCPFRKGACEITRKTRRQCQACRLRKCLESGMKKEMIMSDEAVEERRALIKRKKSERTGTQPLGVQGLTEEQRMMIRELMDAQMKTFDTTFSHFKNFRLPGVLSSGCELPESLQAPSREEAAKWSQVRKDLCSLKVSLQLRGEDGSVWNYKPPADSGGKEIFSLLPHMADMSTYMFKGIISFAKVISYFRDLPIEDQISLLKGAAFELCQLRFNTVFNAETGTWECGRLSYCLEDTAGGFQQLLLEPMLKFHYMLKKLQLHEEEYVLMQAISLFSPDRPGVLQHRVVDQLQEQFAITLKSYIECNRPQPAHRFLFLKIMAMLTELRSINAQHTQRLLRIQDIHPFATPLMQELFGITGS
B3: RARg: Retinoic acid receptor γ (NR1B3), nuclear hormone receptor cDNA driver (protein, UniProt P13631 1-454, looked up)
Retinoic acid receptor gamma: MATNKERLFAAGALGPGSGYPGAGFPFAFPGALRGSPPFEMLSPSFRGLGQPDLPKEMASLSVETQSTSSEEMVPSSPSPPPPPRVYKPCFVCNDKSSGYHYGVSSCEGCKGFFRRSIQKNMVYTCHRDKNCIINKVTRNRCQYCRLQKCFEVGMSKEAVRNDRNKKKKEVKEEGSPDSYELSPQLEELITKVSKAHQETFPSLCQLGKYTTNSSADHRVQLDLGLWDKFSELATKCIIKIVEFAKRLPGFTGLSIADQITLLKAACLDILMLRICTRYTPEQDTMTFSDGLTLNRTQMHNAGFGPLTDLVFAFAGQLLPLEMDDTETGLLSAICLICGDRMDLEEPEKVDKLQEPLLEALRLYARRRRPSQPYMFPRMLMKITDLRGISTKGAERAITLKMEIPGPMPPLIREMLENPEMFEDDSSQPGPHPNASSEDEVPGGQGKGGLKSPA
B4: CAR: Constitutive Androstane Receptor (NR1I3), cDNA driver (protein, UniProt Q14994 1-352, looked up)
Nuclear receptor subfamily 1 …: MASREDELRNCVVCGDQATGYHFNALTCEGCKGFFRRTVSKSIGPTCPFAGSCEVSKTQRRHCPACRLQKCLDAGMRKDMILSAEALALRRAKQAQRRAQQTPVQLSKEQEELIRTLLGAHTRHMGTMFEQFVQFRPPAHLFIHHQPLPTLAPVLPLVTHFADINTFMVLQVIKFTKDLPVFRSLPIEDQISLLKGAAVEICHIVLNTTFCLQTQNFLCGPLRYTIEDGARVSPTVGFQVEFLELLFHFHGTLRKLQLQEPEYVLLAAMALFSPDRPGVTQRDEIDQLQEEMALTLQSYIKGQQRRPRDRFLYAKLLGLLAELRSINEAYGYQIQHIQGLSAMMPLLQEICS
B5: FXR: Farnesoid X Receptor (NR1H4), cDNA driver (protein, UniProt Q96RI1 1-486, looked up)
Bile acid receptor: MVMQFQGLENPIQISPHCSCTPSGFFMEMMSMKPAKGVLTEQVAGPLGQNLEVEPYSQYSNVQFPQVQPQISSSSYYSNLGFYPQQPEEWYSPGIYELRRMPAETLYQGETEVAEMPVTKKPRMGASAGRIKGDELCVVCGDRASGYHYNALTCEGCKGFFRRSITKNAVYKCKNGGNCVMDMYMRRKCQECRLRKCKEMGMLAECMYTGLLTEIQCKSKRLRKNVKQHADQTVNEDSEGRDLRQVTSTTKSCREKTELTPDQQTLLHFIMDSYNKQRMPQEITNKILKEEFSAEENFLILTEMATNHVQVLVEFTKKLPGFQTLDHEDQIALLKGSAVEAMFLRSAEIFNKKLPSGHSDLLEERIRNSGISDEYITPMFSFYKSIGELKMTQEEYALLTAIVILSPDRQYIKDREAVEKLQEPLLDVLQKLCKIHQPENPQHFACLLGRLTELRTFNHHHAEMLMSWRVNDHKFTPLLCEIWDVQ

Tested on: hTNFa promoter
Test: NHR-promoter luciferase screen, hTNFa promoter
Format: cell-based, human
Details: TNFa promoter; HR component without or with ligand
Method in brief: (§1)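 CV-1 cells were co-transfected with 50 ng NHR (homodimer or NHR/RXR heterodimer), 100 ng promoter-luciferase construct and 50 ng LacZ. Luciferase was normalized to LacZ and to a no-NHR/no-ligand control.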

Molecule	Luc. act., normalized to lacZ	Normalized Luc. act., normalized to control
B1	1138.3	1.2
B2	1152.4	1.2
B3	1458.6	1.5
B4	908.2	0.9
B5	974.6	1.0

Same assay, conditions: transcription factor +/- ligand; control = 1.00

Molecule	hTNFa promoter reporter activity
B1	1.16
B2	1.17
B3	1.48
B4	0.92
B5	0.99

Tested on: mNPY promoter
Test: NHR-promoter luciferase screen, mNPY promoter
Format: cell-based, mouse
Details: Table 6d; luciferase activity relative to control (control = 1.00)
Method in brief: as §1

Molecule	Results of assays of transcription factor (+/- ligand) with mNPY
B1	0.70
B2	0.83
B3	1.20
B4	0.88
B5	0.92

Same assay, conditions: mNPY promoter; HR component with or without ligand

Molecule	Luc. act., normalized to lacZ
B1	58.5
B2	69.8
B3	100.5
B4	74.2
B5	77.7

Same assay, conditions: mNPY promoter; HR component with or without ligand; relative to control

Molecule	Normalized Luc. act., normalized to control
B1	0.7
B2	0.8
B3	1.2
B4	0.9
B5	0.9

Tested on: mABCA1 promoter
Test: NHR-promoter luciferase screen, mABCA1 promoter
Format: cell-based, mouse
Details: ABCA1 promoter; hormone receptor with or without its ligand
Method in brief: as §1

Molecule	Luc. act., normalized to lacZ
B1	13.8
B2	15.2
B3	26.4
B4	6.1
B5	14.0

Same assay, conditions: ABCA1 promoter; hormone receptor with or without its ligand; relative to control

Molecule	Normalized Luc. act., normalized to control
B1	2.5
B2	2.7
B3	4.7
B4	1.1
B5	2.5

Same assay, conditions: transcription factor +/- ligand; control = 1.00

Molecule	mABCA1 promoter reporter activity
B1	2.46
B2	2.72
B3	4.69
B4	1.08
B5	2.50

Tested on: hPPARg2 promoter
Test: NHR-promoter luciferase screen, hPPARg2 promoter
Format: cell-based, human
Details: PPARG2 promoter; hormone receptor with or without its ligand
Method in brief: as §1

Molecule	Luc. act., normalized to lacZ
B1	2.5
B2	1.8
B3	3.0
B4	1.3
B5	1.8

Same assay, conditions: PPARG2 promoter; hormone receptor with or without its ligand; relative to control

Molecule	Normalized Luc. act., normalized to control
B1	1.2
B2	0.9
B3	1.5
B4	0.6
B5	0.9

Same assay, conditions: Table 6d; luciferase activity relative to control (control = 1.00)

Molecule	Results of assays of transcription factor (+/- ligand) with hPPARg2
B1	1.24
B2	0.91
B3	1.51
B4	0.63
B5	0.89

Tested on: Bmal1 promoter
Test: NHR-promoter luciferase screen, Bmal1 promoter
Format: cell-based, mouse
Details: Bmal1 promoter; HR component without or with ligand
Method in brief: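 Luciferase activity was measured 48 h after transfection, normalized to LacZ and then to a control lacking NHR or ligand. CV-1 cells carried 100 ng Bmal1 reporter, 50 ng NHR construct and 50 ng LacZ.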

Molecule	Luc. act., normalized to lacZ	Normalized Luc. act., normalized to control
B1	11.2	0.7
B2	31.2	2.0
B3	19.1	1.2
B4	16.4	1.1
B5	15.6	1.0

Same assay, conditions: transcription factor +/- ligand; control = 1.00

Molecule	mBmal1 promoter reporter activity
B1	0.72
B2	2.00
B3	1.22
B4	1.05
B5	1.00

Tested on: hG6PD promoter
Test: NHR-promoter luciferase screen, hG6PD promoter
Format: cell-based, human
Details: G6PD promoter reporter; co-transfected HR, without or with its ligand
Method in brief: as §1

Molecule	Luc. act., normalized to lacZ
B1	48.7
B2	42.5
B3	58.8
B4	46.4
B5	42.6

Same assay, conditions: G6PD promoter reporter; co-transfected HR, without or with its ligand; relative to control

Molecule	Normalized Luc. act., normalized to control
B1	1.3
B2	1.1
B3	1.6
B4	1.2
B5	1.1

Same assay, conditions: hG6PD promoter-luciferase, CV-1 cells, NHR +/- ligand, control = 1.00

Molecule	luciferase activity normalized to lacZ activity and to a control, hG6PD
B1	1.30
B2	1.14
B3	1.57
B4	1.24
B5	1.14
